From the DeepSol protein solubility set

Experiment: soluble on expression in E. coli; label from the status in PepcDB or PDB records

Sequence | soluble on expression in E. coli
MSLPEKLPYLVELSPGRRNHFAYYNYHTYEDGSDSRDKPKLYRLQLSVTEVGTEKLDDNSIQLFGPGIQPHHCDLTNMDGVVTVTPRSMDAETYVEGQRISETTMLQSGMKVQFGASHVFKFVDPSQDHALAKRSVDGGLMVKGPRHKPGIVQETTFDLGGDIHSGTALPTSKSTTRLDSDRVSSASSTAERGMVKPMIRVEQQPDYRRQESRTQDASGPELILPASIEFRESSEDSFLSAIINYTNSSTVHFKLSPTYVLYMACRYVLSNQYRPDISPTERTHKVIAVVNKMVSMMEGVIQKQKNIAGALAFWMANASELLNFIKQDRDLSRITLDAQDVLAHLVQMAFKYLVHCLQSELNNYMPAFLDDPEENSLQRPKIDDVLHTLTGAMSLLRRCRVNAALTIQLFSQLFHFINMWLFNRLVTDPDSGLCSHYWGAIIRQQLGHIEAWAEKQGLELAADCHLSRIVQATTLLTMDKYAPDDIPNINSTCFKLNSLQLQALLQNYHCAPDEPFIPTDLIENVVTVAENTADELARSDGREVQLEEDPDLQLPFLLPEDGYSCDVVRNIPNGLQEFLDPLCQRGFCRLIPHTRSPGTWTIYFEGADYESHLLRENTELAQPLRKEPEIITVTLKKQNGMGLSIVAAKGAGQDKLGIYVKSVVKGGAADVDGRLAAGDQLLSVDGRSLVGLSQERAAELMTRTSSVVTLEVAKQGAIYHGLATLLNQPSPMMQREGHHHHHH | soluble
MSKVLELAKELGAEVIQTHTSWVLLLKDVVYKIKKPVNFGFLDYSTLEKRKEMCYKEVELNRRLCPWVYIGVVPISEVKGKWVIENDENVVEYAVKMRRIPDEAILSNRLDKTTEEDLKKVAKVVADFHVRAKRVDEFGKMEVMKYNTDENFAQTEKYIGITISKEDYDFIKRKTNEFYEKHADIFEKRIKEGRIRDGHGDIRTEHVAFLEEGVCIFDCIEFNDRFRYGDVLNDMCFLSMELEYFGREYLARAYEEEYRRISKDPDFDLMLPFFKCYRAYVRGKVNSFLLDDPNLTQEEKEKAKERATKFFKLARTYAEMIK | not soluble
MTVPEEAQTLIGKHYRAPDHFLVGREKIREFAVAVKDDHPTHYSEPDAAAAGYPALVAPLTFLAIAGRRVQLEIFTKFNIPINIARVFHRDQKFRFHRPILANDKLYFDTYLDSVIESHGTVLAEIRSEVTDAEGKPVVTSVVTMLGLEHHHHHH | not soluble
MAHHHHHHMSTMDVPGTAIEQYFNQLIQMRLLTQVIVSDTRGDTTVACLMGLEHGGDAVVSSSEDTYGVAESIMESNVALSGARCFQNLDQLNLGVPLYVSFQYHDDVVVQTLDGCCMLTLIGSRSQGHFVGGLLTLLDQIRSCEAYQELLTQTQLCFR | not soluble
MVIRMAYSELYWQKEEVMPKKELEELQLKRLRWVVRHAYENVAHYRRKLKEAGVHPDDIKKREDIAKIPFTTKKDFAENYPFGLFAVPKEEIVRLHTSSGTTGKPKVVGYTANDLENWINLVARCLYMVGVRKHDIFQNMANYAFFTGGLGIHDGAERIGAMVIPAGVGNTERQVRCMADFGTTAIHSTPSYALHVKEVAEELGVDDKLSLRIGCFGAEPWSENTRKRLEDAFNIKAFDSYGLSEMNGPGVAFECEEQHGLHIWADHYFIEIIDPQTGEPLSEGEKGELVLTPLTKEALPVLRYRTGDITYIMDDECSCGRTHPKIHRILGRSDDMIIVRGINVFPSQIEHVLMQIPEVGDHFQVVITRNGTLDEITVRVEVRDELFTGELFDLQRLQQKVQRELQKELGLRTNVELVEKGTIERSKGKAKRVLDLREEL | not soluble
MGSDKIHHHHHHMKVYLSFDYELYFGAKSGSADACIIEPAKLLLEIAARHAVHLNFFIDSGYLLALEKYSKRYPSVAYEKQQVFKQIRELAAAGHDCQLHIHPHWEDSYYDGNGWKMNTNRYRLDHFPDAQIEQIVQSYYDITKDIAGKAPIAYRAGGWCMPPWNKVSAVFKKLGIWIDSTVYEKGYLQEGQIAFDFRKAPASDQWMFETDPVTEAPFGYFLELPISSISCSPLFFWNLYVRGRLNRSLHAGMGDGLPMAQPGTKKKLLTRYTQQALSCDGYYASLLTEEFYKRKAKGEDTMVVIGHPKAQSKFSVQALDTFISTVKDSAAFARYSDLQKD | not soluble
MKTQIIGVLGLGIFGQTLATELSSFGQDVIALDNNSTTIDFLADQVTKAAVGDITDIDFLRSAGIDTCDTVIIATGEHLESSALALLHCKKLGITNIIAKATNNNYEEVLYGMGANLVITPERSTAKDLASNILRCNISRIFHLEDDVALIELKIPNEWAGKSLHTLNLRQTYNVNVIGFRNEENGKLNTHFDPMNRLPNEGTILVVSDNRTLEKFDYLGYLKLEHHHHHH | soluble
MGSDKIHHHHHHSCGGKKNSGQLSDTAVQIVKPEFPQIVPFETGIETEQEILLSEIADSIRYIPLETNNKCLIRGLKGSNIIRTKEYFFLPWIDKLFQYTKDGKFIRTLGRKGGGPGEFNWIMQIDVDEKKGLVYMLTTTGKINIYSMETGKFIRAMKVPNIEVSEFAMLRVQDTIAATFMRNNNGKRKERIYLSNLKGDTLKIFNRWDLFDLNSKYRWMISSDIDRYMFHYKSHTCYKEYYNDTLFTITQETLEPRYIFQMGKYSLPIECRFEYLNGDGKRFQEVAAPYIQYNTIETDSYIFMPYSNWAGEKEQERQMAIYDKKAKNCFKVSTGHIKNDLTPGLPLRPITALDSHTLLYVWEAPELLEKAEKTPSILQIEPLKGLNEDDNPVMMIVYLKQP | not soluble
MAHHHHHHMGTLEAQTQGPGSMREVLVPYAGVSPSVDSTAFIAGNARIIGDVCIGKNASIWYGTVLRGDVDKIEVGEGTNIQDNTVVHTDSMHGDTVIGKFVTIGHSCILHACTLGNNAFVGMGSIVMDRAVMEEGSMLAAGSLLTRGKIVKSGELWAGRPAKFLRMMTEEEILYLQKSAENYIALSRGYL | soluble
MFVRSLFLALLLATIVAADIDFSTCARMDVPILKKAAQGLCITSCSMQNCGTGSCKKRSGRPTCVCYRCANGGGDIPLGALIKRG | not soluble
MGSDKIHHHHHHMLSNRELLQKLLKGIETGDPAAAAVVNEEKYIQHYPQTHEGSEGLAVLFARLAKTNPRVRFVRVFEDGDFAFAHNEYDFASLRVAFEVFRFENGRAVEHWDNIQPMLGPNPSGRGMLDGVTQITDLERTEANRALVRDFAQRVLVGRQLDFLGSCVDDGLIQHDPEIADGRAAYRAALEAVTNGQPRLHYTRLHRVLAEGNFVLCMCEGERDGVHSSFYDLFRVENDTIIEHWNTIEAIAPRNEWKNENGKF | not soluble
MTDQERIELQKNNPLHGLKLETLLQELVDFYGWDILDTAMRFNCFHTKPSIASSVKYLNKTEWAREKLENFYLYRFKRMPRASSEEFTLPPRARTFPHGLHPKEPMALTVDSILKSQAKAASAHKERTSRSRYNQR | not soluble
MASVVGTPKSAEQIQQEWDTNPRWKDVTRTYSAEDVVALQGSVVEEHTLARRGAEVLWEQLHDLEWVNALGALTGNMAVQQVRAGLKAIYLSGWQVAGDANLSGHTYPDQSLYPANSVPQVVRRINNALQRADQIAKIEGDTSVENWLAPIVADGEAGFGGALNVYELQKALIAAGVAGSHWEDQLASEKKSGHLGGKVLIPTQQHIRTLTSARLAADVADVPTVVIARTDAEAATLITSDVDERDQPFITGERTREGFYRTKNGIEPCIARAKAYAPFADLIWMETGTPDLEAARQFSEAVKAEYPDQMLAYNCSPSFNWKKHLDDATIAKFQKELAAMGFKFQFITLAGFHALNYSMFDLAYGYAQNQMSAYVELQEREFAAEERGYTATKHQREVGAGYFDRIATTVDPNSSTTALTGSTEEGQFH | soluble
MDPLLTVLKERMRACQRRVSDRPRRQVVAIEWIDPPMASGNWIPELIALAGGENMLGTAGKHSPYIEWSTLLAIDPEVILVMPCGFDLERTRQELDQALQTYPQWQQLRALQTGQLYILDGNAYFNRPGPRLVDSLEILVEILHPCPLEHHHHHH | soluble
MDYKSKTANDKEISIYYFSATGNSLKLSQDIAAAFGGAGLFRMTPSAGITASDSRIVGFIFPVYMGGLPGIVRRFLESYPFRKGVYYFSIGTYYTYKGCAVSVVDKIMSGKGVRLDYGYNLPTVGNCLKEYEVSSVRRTKILERAELYTSRIIDDLKKGKRKKPFPYCRLSDLLHKGLFNAFFSRSHLNFSLENGCMGCGVCERVCPVNNITLKNGVPRWGTGCEACHACVHWCPRNVIQIGKSKGRLQYHHPAVKRTMLYRVELEHHHHHH | not soluble
MSPAPSRPFSVLRANDVLWLSLTAAEYDQSTYGSSTGPVYVSDSVTLVNVATGAQAVARSLDWTKVTLDGRPLSTIQQHSKTFFVLPLRGKLSFWEAGTTKAGYPYNYNTTASDQLLVENAAGHRVAISTYTTSLGAGPVSISAVAVLA | soluble
MPNLPALPDMGLPVVTSDLTATLLPGVASPIVPGQPIEQAFSSILISMMKSDQAIEDDTENPAPVSIDALIAGMIAAPANPPQLVPSQPAPDALDTPNAPDAPAEELLSMLATSMMPNTGQPVTDEPVTFPAGGLASATPPNLPSDSGRHAADPLQTTSQAHAAPLPAELPAGNISTSTPFPAPVNSFNQAIDAANFADSGKSLPPSMTSVPVTPVAAHTSSTPLTDIAADTTANDAPAIAAEFGQPDWPEEFGRKITWLATQRMQAAELKLHPAHLGPIEISLQLSDDQRLTAQFISHHPAVREAIEANLPRLREIMAENGITLADTSVSADTPGQQAENRQGSPFRRPAAGDHSTYDSTSPQTPALQATRRSSLIDTFA | not soluble
MGSDKIHHHHHHMPKRRLPSLNALRAFESAARNQSMTRAAEELCVTHSAISRHVAKLEDYLNAKLFERGHQQVVLTKRGAAYASRLQVLFDQIQDVTAEYFYARPDNASLRIGVLSTFAMRFLIPRLARFKKLYPEITLQVESAHEHVSPRDEEVDVAIWFGNGDWPGLVSEHLFHEELVPVGSPTLLAGHELGNPDDLESFLLLHAAARHDDWQRWLSATGATRVDGYKGLKLEYSGLAYQGAVDGLGLAMAQTLFVQEDLANRRLVAALPQRVKTGRSYYLVHNEMKSEQPVILRFSEWLKDEVRKTIEEIDRTQAEHIEVV | not soluble
MGSDKIHHHHHHMIGYGKTVRDIRTSKGIHQKDLYDNIISKSFAIEFEKGKHDITLSLFEKILKRMNMDLDEFFYIHRELSKSAEKNYLCMNQERGNIYDLESLELLYSELSKHDGELVEVWKAFVRSRIKMVEHLLKYHEFTVDVITAKDKCTIQKYLFSIDTWTLEELKICANSIYFFEEDLQIQFLNQVIKAIQPYKNYDRARRVLCTLLINTIEVFISRSQLSSASKLLILLDSLCIYNESAFYRNISNFLKGLLKMQSNQIKEGYAQAKKAIQLMNDLHFEEIAYLYEILLDQFIQLEGIDILNY | not soluble
MAQSPFRRMTTPGGYQMSVAMTNCGERGWITDHTGYRYDPVDPRTGVPWPAMPPAFRDLARRAAEQGGFTGFAPDACLVNRYEPGTRLSLHQDKDELDYAAPIVSVSLGLPATFLFGGMARSDKPRRFRLVHGDVVVWGGASRLAYHGVAPLADGEHALLGRQRINLTFRKVLLEHHHHHH | soluble
MKNKNDQHLRLQQQIIHYRSEAASCRQQVQQLEAELAKEKMRSAYLKEKLREAETTNVETYKKKIAALERQLLLCEIALEETRYNTSKETQTPAFERAAAVSALFHYSVVVPTHLDEEELTIIGDFIIRNHGTAPLHHLIVCLRLSPPKTAVLSGKIVLPNSGRAEQEALISNSAESWTFTQENWREKVRQSGEYWLAPLYDAPLEPGEERRFSQFEITVPPSSNARSLTVDGFVYCAELPKGVPAANHIAIQW | not soluble
